Data from PMC10921760 (ACS sensors, 2023).

Target: Recombinant Human Integrin α4β1 Protein, CF (human, UniProt P13612 35-977; P05556 21-728)
Experiment: surface enhanced Raman spectroscopy

Sequence of Recombinant Human Integrin α4β1 Protein, CF (P13612 35-977, chain 1 of 2): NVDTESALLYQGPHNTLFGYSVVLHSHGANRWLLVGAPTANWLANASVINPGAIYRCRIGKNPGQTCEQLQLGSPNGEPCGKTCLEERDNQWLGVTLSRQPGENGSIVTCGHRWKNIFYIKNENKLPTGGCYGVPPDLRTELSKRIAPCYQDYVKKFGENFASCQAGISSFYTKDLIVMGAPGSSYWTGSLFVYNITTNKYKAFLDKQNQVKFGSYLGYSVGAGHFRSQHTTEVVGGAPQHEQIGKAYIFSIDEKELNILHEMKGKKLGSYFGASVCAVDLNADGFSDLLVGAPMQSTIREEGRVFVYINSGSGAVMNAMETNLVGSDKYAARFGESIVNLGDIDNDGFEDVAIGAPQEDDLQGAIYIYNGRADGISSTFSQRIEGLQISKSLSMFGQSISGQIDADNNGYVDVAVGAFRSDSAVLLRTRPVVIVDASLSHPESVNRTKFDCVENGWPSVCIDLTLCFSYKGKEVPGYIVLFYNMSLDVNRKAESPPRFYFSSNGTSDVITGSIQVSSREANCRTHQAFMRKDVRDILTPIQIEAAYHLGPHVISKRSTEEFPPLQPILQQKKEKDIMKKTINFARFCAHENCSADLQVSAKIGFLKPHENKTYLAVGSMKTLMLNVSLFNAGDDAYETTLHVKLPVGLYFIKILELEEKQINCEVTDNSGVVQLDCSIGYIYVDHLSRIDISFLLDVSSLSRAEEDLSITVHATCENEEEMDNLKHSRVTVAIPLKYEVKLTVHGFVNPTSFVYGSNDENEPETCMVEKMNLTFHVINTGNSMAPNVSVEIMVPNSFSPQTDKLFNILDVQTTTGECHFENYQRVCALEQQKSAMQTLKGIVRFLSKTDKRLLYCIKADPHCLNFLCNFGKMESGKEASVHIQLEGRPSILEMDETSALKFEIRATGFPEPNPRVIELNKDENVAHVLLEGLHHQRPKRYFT
Sequence of Recombinant Human Integrin α4β1 Protein, CF (P05556 21-728, chain 2 of 2): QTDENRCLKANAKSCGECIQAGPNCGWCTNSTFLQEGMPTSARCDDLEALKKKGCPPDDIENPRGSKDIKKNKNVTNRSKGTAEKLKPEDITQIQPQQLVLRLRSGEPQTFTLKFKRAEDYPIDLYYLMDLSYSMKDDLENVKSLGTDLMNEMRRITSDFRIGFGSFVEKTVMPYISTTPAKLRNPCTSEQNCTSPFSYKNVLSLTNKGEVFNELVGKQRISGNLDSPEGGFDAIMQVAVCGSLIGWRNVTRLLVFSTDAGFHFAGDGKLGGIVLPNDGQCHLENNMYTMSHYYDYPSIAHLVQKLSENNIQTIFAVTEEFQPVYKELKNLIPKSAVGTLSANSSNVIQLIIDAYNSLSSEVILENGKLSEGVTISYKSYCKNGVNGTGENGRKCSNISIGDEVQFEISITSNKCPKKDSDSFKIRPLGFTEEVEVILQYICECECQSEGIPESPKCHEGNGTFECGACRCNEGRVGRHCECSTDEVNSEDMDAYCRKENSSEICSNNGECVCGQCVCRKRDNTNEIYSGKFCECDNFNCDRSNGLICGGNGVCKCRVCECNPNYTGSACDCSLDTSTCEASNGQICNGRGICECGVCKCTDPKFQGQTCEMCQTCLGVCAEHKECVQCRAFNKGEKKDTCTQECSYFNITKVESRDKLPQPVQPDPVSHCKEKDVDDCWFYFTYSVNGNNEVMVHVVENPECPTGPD

B1: Cys-Asp-Pro-Gly-Tyr-Ile-Gly-Ser-Arg (CDPGYIGSR) (peptide)
peptide: CDPGYIGSR
modifications: not fully specified; functionalized onto gold coated magnetic nanoparticles (thiol chemistry of the Cys)
  binding result: binds
